The values below come from paper PMC4106346, “The Oligomeric States of the Purified Sigma-1 Receptor Are Stabilized by Ligands” (The Journal of Biological Chemistry, 2014).

The target of the assay is GpA G83I. Put plainly: TOXCAT. Particulars: parent: est. 100; read off a plot.

On to “glycophorin A transmembrane control of the TOXCAT assay G83I”, for which the response was found to be 6.3 %GpA.
